Experimental findings from patent US20250011427A1 (CONCEPT TO MEDICINE BIOTECH, published 2025) are described below.

Residue numbers refer to the chain shown, from its start.

Assay [1] has as its target human CD3 on cells (human PBMC; Jurkat-CD3-NFAT and TCR/CD3 Effector reporter cells) (human) (UniProt P07766). As to the kind of experiment: cell-based or functional assay.
Assay [2] addresses T1, human CD3 on cells (human PBMC; Jurkat-CD3-NFAT and TCR/CD3 Effector reporter cells) (human, UniProt P07766 23-207; P04234 22-171; P09693 23-182).
T1 construct: whole, on cells; The CD3 complex as carried by T cells; also called huPBMC; CD3 receptor
As to the kind of experiment: FACS on human PBMC, PE goat anti-human IgG Fc secondary antibody, geometric mean fluorescence. How it is done: FACS was used to evaluate the binding activity of 153A6B1, 155A9B1, and 192A7B9 chimeric mAbs on human or cynomolgus PBMC. SP34 (Biointron, B6762) and OKT3 (Biointron, B6928) served as the benchmark controls.
Briefly, cynoPBMCs were first incubated with 3-fold serially diluted 153A6B1, 155A9B1, and 192A7B9 chimeric mAbs starting at 10 nM at 4° C. for 30 mins. While huPBMCs were incubated with 4-fold serially diluted 153A6B1, 155A9B1, and 192A7B9 chimeric mAbs starting at 10 nM at 4° C. for 30 mins. After washing by PBS, PE Goat anti-Human IgG Fc Secondary Antibody (eBioscience™, Invitrogen) was added to each well and incubated at 4° C. for 30 mins. Samples were washed twice with FACS buffer. The mean florescence intensity (MFI) of PE was evaluated by MACSQuant Analyzer 16.

Sequence of human CD3 on cells (human PBMC; Jurkat-CD3-NFAT and TCR/CD3 Effector reporter cells) (human) (P07766 23-207, chain 1 of 3): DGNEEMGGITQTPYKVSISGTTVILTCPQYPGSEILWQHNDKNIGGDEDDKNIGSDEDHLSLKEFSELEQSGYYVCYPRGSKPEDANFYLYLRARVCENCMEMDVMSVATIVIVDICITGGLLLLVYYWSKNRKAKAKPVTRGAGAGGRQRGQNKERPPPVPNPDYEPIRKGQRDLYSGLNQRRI
Sequence of human CD3 on cells (human PBMC; Jurkat-CD3-NFAT and TCR/CD3 Effector reporter cells) (human) (P04234 22-171, chain 2 of 3, further chain): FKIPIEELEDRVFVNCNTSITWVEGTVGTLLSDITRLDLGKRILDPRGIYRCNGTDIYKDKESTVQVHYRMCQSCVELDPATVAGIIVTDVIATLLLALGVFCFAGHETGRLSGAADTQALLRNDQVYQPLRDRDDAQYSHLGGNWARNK
Sequence of human CD3 on cells (human PBMC; Jurkat-CD3-NFAT and TCR/CD3 Effector reporter cells) (human) (P09693 23-182, chain 3 of 3, further chain): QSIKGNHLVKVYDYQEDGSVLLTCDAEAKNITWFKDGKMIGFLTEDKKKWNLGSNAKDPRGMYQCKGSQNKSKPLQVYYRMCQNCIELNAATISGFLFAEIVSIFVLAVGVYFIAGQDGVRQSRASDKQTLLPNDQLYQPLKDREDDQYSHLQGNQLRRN
T1 sequence (P07766 23-207, chain 1 of 3): as the sequence (P07766 23-207, chain 1 of 3) above
T1 sequence (P04234 22-171, chain 2 of 3): as the sequence (P04234 22-171, chain 2 of 3, further chain) above
T1 sequence (P09693 23-182, chain 3 of 3): as the sequence (P09693 23-182, chain 3 of 3, further chain) above

B1: Hu155A9B1-1 (antibody, V domains shown)
VH: EVQLQESGPGLVKPSETLSLTCTVSGGSISSYNVHWIRQPPGKGLEWIGRVRYNGDTSYNSALKSRVTISVDTSKNQFSLKLSSVTAADTAVYYCARGPYGGSSEPLFDYWGQGTMVTVSS
VL: DIQMTQSPSSLSASVGDRVTITCKASQNINKYLNWYQQKPGKAPRLLIYTTNNLQTGVPSRFSGSGSGTDFTLTISSLQPEDFATYYCLQHNSGYTFGQGTKLEIK
For B1, the % of SP34 in assay [1] turned out to be 14.2%.

B2: Hu155A9B1-13 (antibody, V domains shown)
VH: B1 VH
VL: B1 VL with Y36F, V58I, Y87F
As to B2, the % of SP34 in assay [1] is 18.4%.

B3: SP34 monoclonal antibody (antibody, human IgG1, lambda, N297A, V domains shown)
VH: EVQLVESGGGLVQPKGSLKLSCAASGFTFNTYAMNWVRQAPGKGLEWVARIRSKYNNYATYYADSVKDRFTISRDDSQSILYLQMNNLKTEDTAMYYCVRHGNFGNSYVSWFAYWGQGTLVTVSA
VL: QAVVTQESALTTSPGETVTLTCRSSTGAVTTSNYANWVQEKPDHLFTGLIGGTNKRAPGVPARFSGSLIGDKAALTITGAQTEDEAIYFCALWYSNLWVFGGGTKLTVLG
notes: Benchmark, bought (Biointron, B6762)
Take B3: in assay [2], the concentration for a half-maximal effect (EC50 (read off the curve)) was approximately 0.3 nM.
